Measurements: the supplement of paper PMC7877785
± gives the uncertainty stated by the source.

Test: self-splicing fitness, log relative to wild type (ln ratio); higher = more splicing; Tetrahymena group I intron in knt gene, E. coli kanamycin selection, DiMSum; sequences stand for … in CUCUCU…GGAGGGAAAAGUUAUCAGGCAUGCACCUGGUAGCUAGUCUUUAAACCAAUAGAUUGCAUCGGUUUAAAAGGCAAGACCGUCAAAUUGCGGGAAAGGGGUCAACAGCCGUUCAGUACCAAGUCUCAGGGGAAACUUUGAGAUGGCCUUGCAAAGGGUAUGGUAAUAAGCUGACGGACAUGGUCCUAACCACGCAGCCAAGUCCUAAGUCAACAGAUCUUCUGUUGAUAUGGAUGCAGUUCACAGACUAAAUGUCGGUCGGGGAAGAUGUAUUCUUCUCAUAAGAUAUAGUCGGACCUCUCCUUAAUGGGAGCUAGCGGAUGAAGUGAUGCAACACUGGAGCCGCUGGGAACUAAUUUGUAUGCGAAAGUAUAUUGAUUAGUUUUGGAGUACUCGUGGUCG
Summary of the method: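 DiMSum derived fitness as the error-weighted combination of fold changes across replicates, kanamycin versus no kanamycin, normalised to wild type. E. coli BL21(DE3) held the library, which randomised all eight P1ex-region intron nucleotides within the knt kanamycin-resistance gene on pET-22b(+). Six replicate transformations grew overnight at 37°C or 30°C on LB agar with or without 25 μg/mL kanamycin, also containing 100 μg/mL carbenicillin, 50 μM IPTG and 0.2% rhamnose, and pooled colonies were amplicon-sequenced on an Illumina HiSeq 2500.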

Sequence | self-splicing fitness (ln) (30 °C) | self-splicing fitness (ln) (37 °C)
CGCAAGCAAUAUUACGAAGU | -4.42 ± 0.36 | -0.741 ± 0.15
ACUCAGCAAUAUUACGAGGC | -3.27 ± 0.34 | -2.56 ± 0.3
UGGAAGCAAUAUUACGGUAU | -3.09 ± 0.38 | –
CUGUAGCAAUAUUACGCUCA | -2.22 ± 0.22 | -1.95 ± 0.23
UGCUAGCAAUAUUACGGCAG | -2.52 ± 0.12 | -1.1 ± 0.13
UUCAAGCAAUAUUACGCACA | -0.531 ± 0.089 | 0.153 ± 0.13
UUAUAGCAAUAUUACGCGUG | -0.968 ± 0.11 | -0.618 ± 0.13
GACUAGCAAUAUUACGGCUA | -2.4 ± 0.17 | -0.921 ± 0.12
GCGAAGCAAUAUUACGACGA | 0.0165 ± 0.18 | 0.163 ± 0.2
CCCAAGCAAUAUUACGGUUG | -3.99 ± 0.17 | -2.52 ± 0.13
CCAUAGCAAUAUUACGUGCG | -2.49 ± 0.15 | -0.772 ± 0.15
GCCCAGCAAUAUUACGGACC | -3.47 ± 0.23 | -2.94 ± 0.31
CUGUAGCAAUAUUACGUCGC | -2.89 ± 0.28 | -3.19 ± 0.4
AUUCAGCAAUAUUACGGACC | -0.601 ± 0.1 | 0.355 ± 0.15
UUGAAGCAAUAUUACGCGAA | -0.789 ± 0.08 | -0.585 ± 0.093
AGCCAGCAAUAUUACGUAUG | -2.08 ± 0.089 | -3.2 ± 0.19
GCCCAGCAAUAUUACGUCAU | -2.82 ± 0.1 | -1.29 ± 0.097
UCCCAGCAAUAUUACGUGUC | -2.9 ± 0.15 | -2.44 ± 0.16
CGUAAGCAAUAUUACGAUUA | -2.03 ± 0.23 | -1.64 ± 0.32
GGCCAGCAAUAUUACGGACG | -0.421 ± 0.072 | 0.71 ± 0.1
UAAUAGCAAUAUUACGUAUU | -4.09 ± 0.28 | -1.95 ± 0.16
GACGAGCAAUAUUACGGUGC | -2.72 ± 0.28 | -1.47 ± 0.25
UUGAAGCAAUAUUACGUUCG | -0.397 ± 0.065 | 0.0406 ± 0.088
CCCGAGCAAUAUUACGAAUU | – | -2.44 ± 0.35
AGCAAGCAAUAUUACGGGAC | -3.76 ± 0.33 | -2.24 ± 0.29

Sequence | self-splicing fitness (ln) (30 °C) | self-splicing fitness (ln) (37 °C)
GAUAAGCAAUAUUACGUUUA | -1.59 ± 0.12 | -0.982 ± 0.12
UGUAAGCAAUAUUACGUGCG | -0.869 ± 0.075 | -0.337 ± 0.1
GCACAGCAAUAUUACGCUGC | -4.12 ± 0.37 | -2.1 ± 0.3
AAUGAGCAAUAUUACGGAUC | -2.24 ± 0.3 | -0.974 ± 0.3
ACUUAGCAAUAUUACGAACA | -1.35 ± 0.2 | -0.724 ± 0.19
UUCUAGCAAUAUUACGUCAG | -3.16 ± 0.37 | -1.75 ± 0.26
GUAUAGCAAUAUUACGAUAU | -2.87 ± 0.32 | -0.832 ± 0.36
ACUAAGCAAUAUUACGGAAC | -3.33 ± 0.29 | -2.77 ± 0.32
GAGUAGCAAUAUUACGAGCG | -2.04 ± 0.075 | -0.489 ± 0.077
GGAGAGCAAUAUUACGGCAC | -1.39 ± 0.37 | –
CGAUAGCAAUAUUACGCGAG | -3.16 ± 0.26 | -2.42 ± 0.2
GGACAGCAAUAUUACGGUAA | -1.34 ± 0.082 | -0.697 ± 0.075
UGUCAGCAAUAUUACGACAC | -3.09 ± 0.47 | –
CUGUAGCAAUAUUACGCCGG | -2.3 ± 0.2 | -0.642 ± 0.19
CCGGAGCAAUAUUACGUAAG | -0.00724 ± 0.087 | 0.176 ± 0.13
CGUAAGCAAUAUUACGGAUG | -0.733 ± 0.091 | -0.608 ± 0.12
UCAGAGCAAUAUUACGAGUU | -2.22 ± 0.2 | -0.115 ± 0.27
AGAUAGCAAUAUUACGGGGG | -3.43 ± 0.28 | -2.15 ± 0.29
AGCUAGCAAUAUUACGUCCC | -1.33 ± 0.21 | 0.355 ± 0.22
UAUAAGCAAUAUUACGCAUA | -1.92 ± 0.12 | -0.585 ± 0.12
UCUGAGCAAUAUUACGCAUU | -3.77 ± 0.37 | -2.15 ± 0.31
GCUGAGCAAUAUUACGCACU | -1.78 ± 0.17 | -0.125 ± 0.2
AACAAGCAAUAUUACGUUGG | -3.76 ± 0.13 | -3.31 ± 0.18
GCCUAGCAAUAUUACGAACA | -2.17 ± 0.22 | -1.03 ± 0.19
GUAUAGCAAUAUUACGCUAG | -2.46 ± 0.43 | -0.609 ± 0.3

Sequence | self-splicing fitness (ln) (30 °C) | self-splicing fitness (ln) (37 °C)
AACGAGCAAUAUUACGGGGU | -3.26 ± 0.35 | –
UUCUAGCAAUAUUACGACCU | -0.905 ± 0.42 | -2.63 ± 0.44
GGCGAGCAAUAUUACGACAA | – | -1.05 ± 0.34
CUGGAGCAAUAUUACGGAAU | – | -2.05 ± 0.36
GUCUAGCAAUAUUACGAUUG | – | -2.14 ± 0.26
ACCUAGCAAUAUUACGGGAA | -1.62 ± 0.11 | -0.345 ± 0.11
ACGGAGCAAUAUUACGACUG | -1.95 ± 0.14 | -0.681 ± 0.13
ACGUAGCAAUAUUACGAUCG | -1.15 ± 0.1 | -0.0917 ± 0.12
ACCCAGCAAUAUUACGAUCU | -1.34 ± 0.068 | -0.243 ± 0.084
CAAGAGCAAUAUUACGUUAU | -4.08 ± 0.19 | -2.78 ± 0.17
UAAGAGCAAUAUUACGUUUG | -2.33 ± 0.096 | -1.07 ± 0.12
AGUAAGCAAUAUUACGAGUU | -2.53 ± 0.097 | -0.877 ± 0.1
AGAAAGCAAUAUUACGUCUA | -0.728 ± 0.091 | -0.00176 ± 0.092
CUAUAGCAAUAUUACGUCCG | -0.823 ± 0.11 | 0.0188 ± 0.13
CCAGAGCAAUAUUACGAAAU | -3.47 ± 0.23 | -2.93 ± 0.25
CGAAAGCAAUAUUACGCAGU | -3.8 ± 0.22 | -2.69 ± 0.17
AGAUAGCAAUAUUACGAUGU | -0.932 ± 0.079 | -0.112 ± 0.086
UGUAAGCAAUAUUACGGGAU | -3.28 ± 0.32 | -2.46 ± 0.29
GUUUAGCAAUAUUACGAGAG | -3.02 ± 0.17 | -2 ± 0.14
CAUGAGCAAUAUUACGGGGC | -4.13 ± 0.43 | -2.35 ± 0.34
ACGCAGCAAUAUUACGAAAG | -3.33 ± 0.21 | -2 ± 0.19
GAAGAGCAAUAUUACGGAGC | – | -1.64 ± 0.37
CAUGAGCAAUAUUACGACCG | -0.701 ± 0.12 | 0.276 ± 0.14
AACUAGCAAUAUUACGCCGU | -1.62 ± 0.11 | -0.221 ± 0.14
CAUUAGCAAUAUUACGGGUG | -3.18 ± 0.16 | -1.57 ± 0.14

Sequence | self-splicing fitness (ln) (30 °C) | self-splicing fitness (ln) (37 °C)
GAACAGCAAUAUUACGAAUG | -2.42 ± 0.092 | -1.52 ± 0.096
AGGAAGCAAUAUUACGGGGC | -3.49 ± 0.26 | -2.49 ± 0.24
GUAAAGCAAUAUUACGUCAC | -2.16 ± 0.096 | -1.56 ± 0.12
UCCCAGCAAUAUUACGUACG | -3.27 ± 0.2 | -2.93 ± 0.3
AUACAGCAAUAUUACGUUUU | -2.19 ± 0.12 | -2.09 ± 0.15
ACCCAGCAAUAUUACGUGUA | -1.38 ± 0.06 | -0.689 ± 0.064
AAUAAGCAAUAUUACGGUAC | -2.68 ± 0.21 | -1.79 ± 0.14
UUCUAGCAAUAUUACGCAUC | -2.33 ± 0.42 | -0.769 ± 0.29
GUGCAGCAAUAUUACGUAUU | -1.7 ± 0.1 | -1.78 ± 0.12
GAUUAGCAAUAUUACGUGAG | -1.33 ± 0.073 | 0.0593 ± 0.096
UCAAAGCAAUAUUACGGUGA | -0.776 ± 0.098 | -0.408 ± 0.11
UAUGAGCAAUAUUACGGCCU | -4 ± 0.37 | –
AGGAAGCAAUAUUACGUCAG | -2.97 ± 0.25 | -2.41 ± 0.33
GAGUAGCAAUAUUACGUACG | -2.67 ± 0.18 | 0.056 ± 0.13
GGCCAGCAAUAUUACGCAUG | -2.27 ± 0.12 | -1.3 ± 0.14
UGACAGCAAUAUUACGUGUG | -0.953 ± 0.06 | -0.807 ± 0.069
UCCGAGCAAUAUUACGCUUG | -3.49 ± 0.28 | -2.09 ± 0.25
GAAUAGCAAUAUUACGACUA | -1.42 ± 0.2 | -0.533 ± 0.31
CUGUAGCAAUAUUACGUGUG | -1.79 ± 0.058 | -0.37 ± 0.071
CGUCAGCAAUAUUACGCCCC | -0.652 ± 0.24 | -1.34 ± 0.3
ACGAAGCAAUAUUACGAAAC | -2.87 ± 0.23 | –
GACAAGCAAUAUUACGUCAG | -3.3 ± 0.23 | -2.21 ± 0.2
GUGUAGCAAUAUUACGACUC | -0.267 ± 0.15 | -0.0849 ± 0.21
